Measured values published in patent US20200199204A1.

Experiments:
Assay in all cases: cell-based or functional assay
[1] = target: HIV-1 Env of 0260.v5.c36 (HIV-1)
[2] = target: HIV-1 Env of 3016.V5.c36 (HIV-1)
[3] = target: HIV-1 Env of 6405.v4.c34 (HIV-1)
[4] = target: HIV-1 Env of 6535.3 (HIV-1)
[5] = target: HIV-1 Env of 96ZM651.02 (HIV-1)
[6] = target: HIV-1 Env of AC10.29 (HIV-1)
[7] = target: HIV-1 Env of BG505.w6m (HIV-1)
[8] = target: HIV-1 Env of C1080.c3 (HIV-1)
[9] = target: HIV-1 Env of CAAN.A2 (HIV-1)
[10] = target: HIV-1 Env of CAP210.E8 (HIV-1)
[11] = target: HIV-1 Env of CAP244.D3 (HIV-1)
[12] = target: HIV-1 Env of CAP256.PI (HIV-1)
[13] = target: HIV-1 Env of CAP256.SU (HIV-1)
[14] = target: HIV-1 Env of CAP45.G3 (HIV-1)
[15] = target: HIV-1 Env of CM244.ec1 (HIV-1)
[16] = target: HIV-1 Env of CNE3 (HIV-1)
[17] = target: HIV-1 Env of DU156.12 (HIV-1)
[18] = target: HIV-1 Env of DU172.17 (HIV-1)
[19] = target: HIV-1 Env of DU422.01 (HIV-1)
[20] = target: HIV-1 Env of KER2008.12 (HIV-1)
[21] = target: HIV-1 Env of KER2018.11 (HIV-1)
[22] = target: HIV-1 Env of MB201 (HIV-1)
[23] = target: HIV-1 Env of MB539.2B7 (HIV-1)
[24] = target: HIV-1 Env of PVO.04 (HIV-1)
[25] = target: HIV-1 Env of Q168.a2 (HIV-1)
[26] = target: HIV-1 Env of Q23.17 (HIV-1)
[27] = target: HIV-1 Env of Q259.d2.17 (HIV-1)
[28] = target: HIV-1 Env of Q461.e2 (HIV-1)
[29] = target: HIV-1 Env of Q769.d22 (HIV-1)
[30] = target: HIV-1 Env of Q842.d12 (HIV-1)
[31] = target: HIV-1 Env of QH0692.42 (HIV-1)
[32] = target: HIV-1 Env of REJO.67 (HIV-1)
[33] = target: HIV-1 Env of RHPA.7 (HIV-1)
[34] = target: HIV-1 Env of RW020.2 (HIV-1)
[35] = target: HIV-1 Env of SC422.8 (HIV-1)
[36] = target: HIV-1 Env of TH976.17 (HIV-1)
[37] = target: HIV-1 Env of THRO.18 (HIV-1)
[38] = target: HIV-1 Env of TRJO.58 (HIV-1)
[39] = target: HIV-1 Env of TRO.11 (HIV-1)
[40] = target: HIV-1 Env of UG037.8 (HIV-1)
[41] = target: HIV-1 Env of WITO.33 (HIV-1)
[42] = target: HIV-1 Env of ZM109.4 (HIV-1)
[43] = target: HIV-1 Env of ZM135.10a (HIV-1)
[44] = target: HIV-1 Env of ZM197.7 (HIV-1)
[45] = target: HIV-1 Env of ZM214.15 (HIV-1)
[46] = target: HIV-1 Env of ZM233.6 (HIV-1)
[47] = target: HIV-1 Env of ZM249.1 (HIV-1)
[48] = target: HIV-1 Env of ZM53.12 (HIV-1)

CAP256-VRC26.30 (antibody)
IC50 (neutralization, TZM-bl) [1]: > 50 µg/mL | IC50 (neutralization, TZM-bl) [2]: 1.05 µg/mL | IC50 (neutralization, TZM-bl) [3]: > 50 µg/mL | IC50 (neutralization, TZM-bl) [4]: > 50 µg/mL | IC50 (neutralization, TZM-bl) [5]: 37.8 µg/mL | IC50 (neutralization, TZM-bl) [6]: > 50 µg/mL | IC50 (neutralization, TZM-bl) [7]: 9.04 µg/mL | IC50 (neutralization, TZM-bl) [8]: 0.073 µg/mL | IC50 (neutralization, TZM-bl) [9]: > 50 µg/mL | IC50 (neutralization, TZM-bl) [10]: < 0.0006 µg/mL | IC50 (neutralization, TZM-bl) [11]: > 50 µg/mL | IC50 (neutralization, TZM-bl) [12]: > 50 µg/mL | IC50 (neutralization, TZM-bl) [13]: < 0.0006 µg/mL | IC50 (neutralization, TZM-bl) [14]: 0.317 µg/mL | IC50 (neutralization, TZM-bl) [15]: > 50 µg/mL | IC50 (neutralization, TZM-bl) [16]: > 50 µg/mL | IC50 (neutralization, TZM-bl) [17]: 0.848 µg/mL | IC50 (neutralization, TZM-bl) [18]: > 50 µg/mL | IC50 (neutralization, TZM-bl) [19]: 0.4 µg/mL | IC50 (neutralization, TZM-bl) [20]: > 50 µg/mL | IC50 (neutralization, TZM-bl) [21]: < 0.0006 µg/mL | IC50 (neutralization, TZM-bl) [22]: > 50 µg/mL | IC50 (neutralization, TZM-bl) [23]: > 50 µg/mL | IC50 (neutralization, TZM-bl) [24]: 12.6 µg/mL | IC50 (neutralization, TZM-bl) [25]: 0.199 µg/mL | IC50 (neutralization, TZM-bl) [26]: > 50 µg/mL | IC50 (neutralization, TZM-bl) [27]: 0.107 µg/mL | IC50 (neutralization, TZM-bl) [28]: > 50 µg/mL | IC50 (neutralization, TZM-bl) [29]: > 50 µg/mL | IC50 (neutralization, TZM-bl) [30]: > 50 µg/mL | IC50 (neutralization, TZM-bl) [31]: > 50 µg/mL | IC50 (neutralization, TZM-bl) [32]: > 50 µg/mL | IC50 (neutralization, TZM-bl) [33]: > 50 µg/mL | IC50 (neutralization, TZM-bl) [34]: > 50 µg/mL | IC50 (neutralization, TZM-bl) [35]: > 50 µg/mL | IC50 (neutralization, TZM-bl) [36]: > 50 µg/mL | IC50 (neutralization, TZM-bl) [37]: > 50 µg/mL | IC50 (neutralization, TZM-bl) [38]: > 50 µg/mL | IC50 (neutralization, TZM-bl) [39]: > 50 µg/mL | IC50 (neutralization, TZM-bl) [40]: > 50 µg/mL | IC50 (neutralization, TZM-bl) [41]: > 50 µg/mL | IC50 (neutralization, TZM-bl) [42]: > 50 µg/mL | IC50 (neutralization, TZM-bl) [43]: > 50 µg/mL | IC50 (neutralization, TZM-bl) [44]: 1 µg/mL | IC50 (neutralization, TZM-bl) [45]: > 50 µg/mL | IC50 (neutralization, TZM-bl) [46]: 0.188 µg/mL | IC50 (neutralization, TZM-bl) [47]: 0.762 µg/mL | IC50 (neutralization, TZM-bl) [48]: < 0.0006 µg/mL

CAP256-VRC26.29 (antibody)
IC50 (neutralization, TZM-bl) [1]: > 50 µg/mL | IC50 (neutralization, TZM-bl) [2]: 0.012 µg/mL | IC50 (neutralization, TZM-bl) [3]: > 50 µg/mL | IC50 (neutralization, TZM-bl) [4]: > 50 µg/mL | IC50 (neutralization, TZM-bl) [5]: > 50 µg/mL | IC50 (neutralization, TZM-bl) [6]: 20.4 µg/mL | IC50 (neutralization, TZM-bl) [7]: 0.046 µg/mL | IC50 (neutralization, TZM-bl) [8]: 0.009 µg/mL | IC50 (neutralization, TZM-bl) [9]: > 50 µg/mL | IC50 (neutralization, TZM-bl) [10]: < 0.0006 µg/mL | IC50 (neutralization, TZM-bl) [11]: > 50 µg/mL | IC50 (neutralization, TZM-bl) [12]: > 50 µg/mL | IC50 (neutralization, TZM-bl) [13]: < 0.0006 µg/mL | IC50 (neutralization, TZM-bl) [14]: 0.076 µg/mL | IC50 (neutralization, TZM-bl) [15]: 1.13 µg/mL | IC50 (neutralization, TZM-bl) [16]: > 50 µg/mL | IC50 (neutralization, TZM-bl) [17]: 0.136 µg/mL | IC50 (neutralization, TZM-bl) [18]: > 50 µg/mL | IC50 (neutralization, TZM-bl) [19]: 0.072 µg/mL | IC50 (neutralization, TZM-bl) [20]: 0.684 µg/mL | IC50 (neutralization, TZM-bl) [21]: < 0.0006 µg/mL | IC50 (neutralization, TZM-bl) [22]: > 50 µg/mL | IC50 (neutralization, TZM-bl) [23]: 13.3 µg/mL | IC50 (neutralization, TZM-bl) [24]: 4 µg/mL | IC50 (neutralization, TZM-bl) [25]: 0.007 µg/mL | IC50 (neutralization, TZM-bl) [26]: 0.023 µg/mL | IC50 (neutralization, TZM-bl) [27]: 0.019 µg/mL | IC50 (neutralization, TZM-bl) [28]: 2 µg/mL | IC50 (neutralization, TZM-bl) [29]: > 50 µg/mL | IC50 (neutralization, TZM-bl) [30]: 1.69 µg/mL | IC50 (neutralization, TZM-bl) [31]: > 50 µg/mL | IC50 (neutralization, TZM-bl) [32]: > 50 µg/mL | IC50 (neutralization, TZM-bl) [33]: > 50 µg/mL | IC50 (neutralization, TZM-bl) [34]: > 50 µg/mL | IC50 (neutralization, TZM-bl) [35]: > 50 µg/mL | IC50 (neutralization, TZM-bl) [36]: > 50 µg/mL | IC50 (neutralization, TZM-bl) [37]: > 50 µg/mL | IC50 (neutralization, TZM-bl) [38]: > 50 µg/mL | IC50 (neutralization, TZM-bl) [39]: > 50 µg/mL | IC50 (neutralization, TZM-bl) [40]: > 50 µg/mL | IC50 (neutralization, TZM-bl) [41]: > 50 µg/mL | IC50 (neutralization, TZM-bl) [42]: > 50 µg/mL | IC50 (neutralization, TZM-bl) [43]: > 50 µg/mL | IC50 (neutralization, TZM-bl) [44]: 0.136 µg/mL | IC50 (neutralization, TZM-bl) [45]: 13.6 µg/mL | IC50 (neutralization, TZM-bl) [46]: 0.003 µg/mL | IC50 (neutralization, TZM-bl) [47]: 0.093 µg/mL | IC50 (neutralization, TZM-bl) [48]: 0.001 µg/mL
